According to US20130252884A1 (Novo Nordisk, published 2013):
One block for each binder: values may come before it.

Biological target: human beta-Klotho (human, UniProt Q86Z14 1-1044)
Test: cell-based or functional assay

B2: [-1A, S71C, L166F, S167G, M168L, G174V, Y179F, A180E] FGF-21 (ligand)
chain: AHPIPDSSPLLQFGGQVRQRYLYTDDAQQTEAHLEIREDGTVGGAADQSPESLLQLKALKPGVIQILGVKTCRFLCQRPDGALYGSLHFDPEACSFRELLLEDGYNVYQSEAHGLPLHLPGNKSPHRDPAPRGPARFLPLPGLPPALPEPPGILAPQPPDVGSSDPFGLVGPSQVRSPSFES
- pERK-HEK293-Beta-klotho without HSA [EC50 (nM)] Median Value: 0.64 nM

B3: [-1A, S71C, N121Q, L166F, M168L, Q173A, G174V, Y179F] FGF21 (ligand)
chain: AHPIPDSSPLLQFGGQVRQRYLYTDDAQQTEAHLEIREDGTVGGAADQSPESLLQLKALKPGVIQILGVKTCRFLCQRPDGALYGSLHFDPEACSFRELLLEDGYNVYQSEAHGLPLHLPGQKSPHRDPAPRGPARFLPLPGLPPALPEPPGILAPQPPDVGSSDPFSLVGPSAVRSPSFAS
- pERK-HEK293-Beta-klotho without HSA [EC50 (nM)] Median Value: 0.98 nM

B5: [-1A, S71C, N121Q, L166F, S167G, M168L, G174V, Y179F, A180E] FGF-21 (ligand)
chain: AHPIPDSSPLLQFGGQVRQRYLYTDDAQQTEAHLEIREDGTVGGAADQSPESLLQLKALKPGVIQILGVKTCRFLCQRPDGALYGSLHFDPEACSFRELLLEDGYNVYQSEAHGLPLHLPGQKSPHRDPAPRGPARFLPLPGLPPALPEPPGILAPQPPDVGSSDPFGLVGPSQVRSPSFES
- pERK-HEK293-Beta-klotho without HSA [EC50 (nM)] Median Value: 0.71 nM

B7: [-1A, 71C, 121Q, 166F, 167G, 168L, 171L, 172E, 173A, 174V, des179-181] FGF-21 (ligand)
chain: AHPIPDSSPLLQFGGQVRQRYLYTDDAQQTEAHLEIREDGTVGGAADQSPESLLQLKALKPGVIQILGVKTCRFLCQRPDGALYGSLHFDPEACSFRELLLEDGYNVYQSEAHGLPLHLPGQKSPHRDPAPRGPARFLPLPGLPPALPEPPGILAPQPPDVGSSDPFGLVGLEAVRSPS
- pERK-HEK293-Beta-klotho without HSA [EC50 (nM)] Median Value: 12.5 nM

B9: [-1A, S71C, N121Q, L166F, S167G, M168L, G174V, Y179F, A180E, des181] FGF-21 (ligand)
chain: AHPIPDSSPLLQFGGQVRQRYLYTDDAQQTEAHLEIREDGTVGGAADQSPESLLQLKALKPGVIQILGVKTCRFLCQRPDGALYGSLHFDPEACSFRELLLEDGYNVYQSEAHGLPLHLPGQKSPHRDPAPRGPARFLPLPGLPPALPEPPGILAPQPPDVGSSDPFGLVGPSQVRSPSFE
- pERK-HEK293-Beta-klotho without HSA [EC50 (nM)] Median Value: 0.78 nM

B10: [-1A, S71C, L166F, S167G, M168L, G174V, Y179F, A180E, des181] FGF-21 (ligand)
chain: AHPIPDSSPLLQFGGQVRQRYLYTDDAQQTEAHLEIREDGTVGGAADQSPESLLQLKALKPGVIQILGVKTCRFLCQRPDGALYGSLHFDPEACSFRELLLEDGYNVYQSEAHGLPLHLPGNKSPHRDPAPRGPARFLPLPGLPPALPEPPGILAPQPPDVGSSDPFGLVGPSQVRSPSFE
- pERK-HEK293-Beta-klotho without HSA [EC50 (nM)] Median Value: 0.71 nM

B13: [-1A, 121Q, 166F, 167G, 168L, 171L, 172E, 173A, 174V, 179F, 180E, des181] FGF-21 (ligand)
chain: AHPIPDSSPLLQFGGQVRQRYLYTDDAQQTEAHLEIREDGTVGGAADQSPESLLQLKALKPGVIQILGVKTSRFLCQRPDGALYGSLHFDPEACSFRELLLEDGYNVYQSEAHGLPLHLPGQKSPHRDPAPRGPARFLPLPGLPPALPEPPGILAPQPPDVGSSDPFGLVGLEAVRSPSFE
- pERK-HEK293-Beta-klotho without HSA [EC50 (nM)] Median Value: 0.7 nM

B14: [-1A, S71C, L166F, S167G, M168L, P171L, S172E, Q173A, G174V, Y179F, A180E, des181] FGF-21 (ligand)
chain: AHPIPDSSPLLQFGGQVRQRYLYTDDAQQTEAHLEIREDGTVGGAADQSPESLLQLKALKPGVIQILGVKTCRFLCQRPDGALYGSLHFDPEACSFRELLLEDGYNVYQSEAHGLPLHLPGNKSPHRDPAPRGPARFLPLPGLPPALPEPPGILAPQPPDVGSSDPFGLVGLEAVRSPSFE
- pERK-HEK293-Beta-klotho without HSA [EC50 (nM)] Median Value: 0.77 nM

B16: [-1A, S71C, N121Q, L166F, S167G, M168L, P171L, S172E, Q173A, G174V, Y179F, A180E, des181] FGF-21 (ligand)
chain: AHPIPDSSPLLQFGGQVRQRYLYTDDAQQTEAHLEIREDGTVGGAADQSPESLLQLKALKPGVIQILGVKTCRFLCQRPDGALYGSLHFDPEACSFRELLLEDGYNVYQSEAHGLPLHLPGQKSPHRDPAPRGPARFLPLPGLPPALPEPPGILAPQPPDVGSSDPFGLVGLEAVRSPSFE
- pERK-HEK293-Beta-klotho without HSA [EC50 (nM)] Median Value: 0.63 nM

B19: [-1A, S71C, L166F, S167G, M168L, P171L, S172E, Q173A, G174V, Y179F, A180E] FGF-21 (ligand)
chain: AHPIPDSSPLLQFGGQVRQRYLYTDDAQQTEAHLEIREDGTVGGAADQSPESLLQLKALKPGVIQILGVKTCRFLCQRPDGALYGSLHFDPEACSFRELLLEDGYNVYQSEAHGLPLHLPGNKSPHRDPAPRGPARFLPLPGLPPALPEPPGILAPQPPDVGSSDPFGLVGLEAVRSPSFES
- pERK-HEK293-Beta-klotho without HSA [EC50 (nM)] Median Value: 0.47 nM

B21: [-1A, S71C, N121Q, L166F, S167G, M168L, P171L, S172E, Q173A, G174V, Y179F, A180E] FGF-21 (ligand)
chain: AHPIPDSSPLLQFGGQVRQRYLYTDDAQQTEAHLEIREDGTVGGAADQSPESLLQLKALKPGVIQILGVKTCRFLCQRPDGALYGSLHFDPEACSFRELLLEDGYNVYQSEAHGLPLHLPGQKSPHRDPAPRGPARFLPLPGLPPALPEPPGILAPQPPDVGSSDPFGLVGLEAVRSPSFES
- pERK-HEK293-Beta-klotho without HSA [EC50 (nM)] Median Value: 0.76 nM

Continued, values first:

- pERK-HEK293-Beta-klotho without HSA [EC50 (nM)] Median Value: 1.6 nM
B1: Met-FGF21 (mature human FGF21 with an added N-terminal methionine) (ligand)
chain: MHPIPDSSPLLQFGGQVRQRYLYTDDAQQTEAHLEIREDGTVGGAADQSPESLLQLKALKPGVIQILGVKTSRFLCQRPDGALYGSLHFDPEACSFRELLLEDGYNVYQSEAHGLPLHLPGNKSPHRDPAPRGPARFLPLPGLPPALPEPPGILAPQPPDVGSSDPLSMVGPSQGRSPSYAS

- pERK-HEK293-Beta-klotho without HSA [EC50 (nM)] Median Value: 0.47 nM
B4: Derivative 18: Analog 2 with modifying moiety III on the sulphur of Cys 71 (ligand)
chain: AHPIPDSSPLLQFGGQVRQRYLYTDDAQQTEAHLEIREDGTVGGAADQSPESLLQLKALKPGVIQILGVKTCRFLCQRPDGALYGSLHFDPEACSFRELLLEDGYNVYQSEAHGLPLHLPGNKSPHRDPAPRGPARFLPLPGLPPALPEPPGILAPQPPDVGSSDPFGLVGPSQVRSPSFES
modifications: Cys 71: {2-[2-(2-{2-[2-(2-{2-[(S)-4-Carboxy-4-(17-carboxyheptadecanoylamino)butyrylamino]ethoxy}ethoxy)acetylamino]ethoxy}ethoxy)acetylamino]ethylcarbamoyl}methyl (modifying moiety III) on the sulphur atom

- pERK-HEK293-Beta-klotho without HSA [EC50 (nM)] Median Value: 1.4 nM
B6: Derivative 102: Analog 11 with modifying moiety III on the sulphur of Cys 71 (ligand)
chain: AHPIPDSSPLLQFGGQVRQRYLYTDDAQQTEAHLEIREDGTVGGAADQSPESLLQLKALKPGVIQILGVKTCRFLCQRPDGALYGSLHFDPEACSFRELLLEDGYNVYQSEAHGLPLHLPGQKSPHRDPAPRGPARFLPLPGLPPALPEPPGILAPQPPDVGSSDPFSLVGPSAVRSPSFAS
modifications: Cys 71: {2-[2-(2-{2-[2-(2-{2-[(S)-4-Carboxy-4-(17-carboxyheptadecanoylamino)butyrylamino]ethoxy}ethoxy)acetylamino]ethoxy}ethoxy)acetylamino]ethylcarbamoyl}methyl (modifying moiety III) on the sulphur atom

- pERK-HEK293-Beta-klotho without HSA [EC50 (nM)] Median Value: 23.8 nM
B8: Derivative 101: Analog 10 with modifying moiety III on the sulphur of Cys 71 (ligand)
chain: AHPIPDSSPLLQFGGQVRQRYLYTDDAQQTEAHLEIREDGTVGGAADQSPESLLQLKALKPGVIQILGVKTCRFLCQRPDGALYGSLHFDPEACSFRELLLEDGYNVYQSEAHGLPLHLPGQKSPHRDPAPRGPARFLPLPGLPPALPEPPGILAPQPPDVGSSDPFGLVGLEAVRSPS
modifications: Cys 71: {2-[2-(2-{2-[2-(2-{2-[(S)-4-Carboxy-4-(17-carboxyheptadecanoylamino)butyrylamino]ethoxy}ethoxy)acetylamino]ethoxy}ethoxy)acetylamino]ethylcarbamoyl}methyl (modifying moiety III) on the sulphur atom

- pERK-HEK293-Beta-klotho without HSA [EC50 (nM)] Median Value: 0.64 nM
B11: Derivative 23: Analog 7 with modifying moiety III on the sulphur of Cys 71 (ligand)
chain: AHPIPDSSPLLQFGGQVRQRYLYTDDAQQTEAHLEIREDGTVGGAADQSPESLLQLKALKPGVIQILGVKTCRFLCQRPDGALYGSLHFDPEACSFRELLLEDGYNVYQSEAHGLPLHLPGQKSPHRDPAPRGPARFLPLPGLPPALPEPPGILAPQPPDVGSSDPFGLVGLEAVRSPSFE
modifications: Cys 71: {2-[2-(2-{2-[2-(2-{2-[(S)-4-Carboxy-4-(17-carboxyheptadecanoylamino)butyrylamino]ethoxy}ethoxy)acetylamino]ethoxy}ethoxy)acetylamino]ethylcarbamoyl}methyl (modifying moiety III) on the sulphur atom

- pERK-HEK293-Beta-klotho without HSA [EC50 (nM)] Median Value: 0.48 nM
B12: Derivative 19: Analog 3 with modifying moiety III on the sulphur of Cys 71 (ligand)
chain: AHPIPDSSPLLQFGGQVRQRYLYTDDAQQTEAHLEIREDGTVGGAADQSPESLLQLKALKPGVIQILGVKTCRFLCQRPDGALYGSLHFDPEACSFRELLLEDGYNVYQSEAHGLPLHLPGNKSPHRDPAPRGPARFLPLPGLPPALPEPPGILAPQPPDVGSSDPFGLVGLEAVRSPSFE
modifications: Cys 71: {2-[2-(2-{2-[2-(2-{2-[(S)-4-Carboxy-4-(17-carboxyheptadecanoylamino)butyrylamino]ethoxy}ethoxy)acetylamino]ethoxy}ethoxy)acetylamino]ethylcarbamoyl}methyl (modifying moiety III) on the sulphur atom

- pERK-HEK293-Beta-klotho without HSA [EC50 (nM)] Median Value: 0.98 nM
B15: Derivative 17: Analog 1 with modifying moiety III on the sulphur of Cys 71 (ligand)
chain: AHPIPDSSPLLQFGGQVRQRYLYTDDAQQTEAHLEIREDGTVGGAADQSPESLLQLKALKPGVIQILGVKTCRFLCQRPDGALYGSLHFDPEACSFRELLLEDGYNVYQSEAHGLPLHLPGNKSPHRDPAPRGPARFLPLPGLPPALPEPPGILAPQPPDVGSSDPFGLVGPSQVRSPSFE
modifications: Cys 71: {2-[2-(2-{2-[2-(2-{2-[(S)-4-Carboxy-4-(17-carboxyheptadecanoylamino)butyrylamino]ethoxy}ethoxy)acetylamino]ethoxy}ethoxy)acetylamino]ethylcarbamoyl}methyl (modifying moiety III) on the sulphur atom

- pERK-HEK293-Beta-klotho without HSA [EC50 (nM)] Median Value: 1.46 nM
B17: Derivative 31: Analog 7 with modifying moiety IV on the sulphur of Cys 71 (ligand)
chain: AHPIPDSSPLLQFGGQVRQRYLYTDDAQQTEAHLEIREDGTVGGAADQSPESLLQLKALKPGVIQILGVKTCRFLCQRPDGALYGSLHFDPEACSFRELLLEDGYNVYQSEAHGLPLHLPGQKSPHRDPAPRGPARFLPLPGLPPALPEPPGILAPQPPDVGSSDPFGLVGLEAVRSPSFE
modifications: Cys 71: {2-[2-(2-{2-[2-(2-{2-[(S)-4-Carboxy-4-(19-carboxynonadecanoylamino)butyrylamino]ethoxy}ethoxy)acetylamino]ethoxy}ethoxy)acetylamino]ethylcarbamoyl}methyl (modifying moiety IV) on the sulphur atom

- pERK-HEK293-Beta-klotho without HSA [EC50 (nM)] Median Value: 1.07 nM
B18: Derivative 21: Analog 5 with modifying moiety III on the sulphur of Cys 71 (ligand)
chain: AHPIPDSSPLLQFGGQVRQRYLYTDDAQQTEAHLEIREDGTVGGAADQSPESLLQLKALKPGVIQILGVKTCRFLCQRPDGALYGSLHFDPEACSFRELLLEDGYNVYQSEAHGLPLHLPGQKSPHRDPAPRGPARFLPLPGLPPALPEPPGILAPQPPDVGSSDPFGLVGPSQVRSPSFE
modifications: Cys 71: {2-[2-(2-{2-[2-(2-{2-[(S)-4-Carboxy-4-(17-carboxyheptadecanoylamino)butyrylamino]ethoxy}ethoxy)acetylamino]ethoxy}ethoxy)acetylamino]ethylcarbamoyl}methyl (modifying moiety III) on the sulphur atom

- pERK-HEK293-Beta-klotho without HSA [EC50 (nM)] Median Value: 1.01 nM
B20: Derivative 24: Analog 8 with modifying moiety III on the sulphur of Cys 71 (ligand)
chain: AHPIPDSSPLLQFGGQVRQRYLYTDDAQQTEAHLEIREDGTVGGAADQSPESLLQLKALKPGVIQILGVKTCRFLCQRPDGALYGSLHFDPEACSFRELLLEDGYNVYQSEAHGLPLHLPGQKSPHRDPAPRGPARFLPLPGLPPALPEPPGILAPQPPDVGSSDPFGLVGLEAVRSPSFES
modifications: Cys 71: {2-[2-(2-{2-[2-(2-{2-[(S)-4-Carboxy-4-(17-carboxyheptadecanoylamino)butyrylamino]ethoxy}ethoxy)acetylamino]ethoxy}ethoxy)acetylamino]ethylcarbamoyl}methyl (modifying moiety III) on the sulphur atom
